1 substance from article PMC3240604 can be followed below.

As a reminder, the stoichiometry N is the number of molecules, sites or subunits per partner or assembly.

The assay has as its target purified wild-type N1 (C-terminal His tag) (vaccinia virus) (UniProt P17361). Kind of assay: SEC-MALS.

Regarding “purified wild-type N1 (C-terminal His tag) (from UniProt P17361) (natural protein)”, the stoichiometry N stood at 2.
